These results are taken from patent US20220025070A1 (Novartis, published 2022).

Substitutions are numbered along the chain they refer to.

Sequences and labels used below:
B1: anti-FXI/FXIa antibody NOV1401 (antibody, human IgG1, lambda, V domains shown)
VH: QVQLLESGGGLVQPGGSLRLSCAASGFTFSTAAMSWVRQAPGKGLEWVSGISGSGSSTYYADSVKGRFTISRDNSKNTLYLQMNSLRAEDTAVYYCARELSYLYSGYYFDYWGQGTLVTVSS
VL: QSVLTQPPSASGTPGQRVTISCSGSSSNIGSNDVSWYQQLPGTAPKLLIYKNYNRPSGVPDRFSGSKSGTSASLAISGLQSEDEADYYCSAWDQRQFDVVFGGGTKLTVLG
notes: Captured through Fc in Octet, free in solution in SET (biotinylated NOV1401 used only on the detection plate), amine-coupled in SPR; also called anti-Factor XI antibody NOV1401; target antibody
B2: anti-NOV1401 Fab IDT1 (parental, first generation) (Fab, V domains shown)
VH: QVQLLESGGGLVQPGGSLRLSCAASGFTFSDYAMSWVRQAPGKGLEWVSVIDYSSSNTYYADSVKGRFTISRDNSKNTLYLQMNSLRAEDTAVYYCAREGYSYRSIRFDYWGQGTLVTVSS
VL: DIQMTQSPSSLSASVGDRVTITCRASQSISSNLNWYQQKPGKAPKLLIYAASNLQSGVPSRFSGSGSGTDFTLTISSLQPEDFATYYCLQFDHTPFTFGQGTKVEIKR
notes: also called parental Fab; parental antibody IDT1
B3: anti-NOV1401 Fab IDT1B, E. coli format (Fab, V domains shown)
VH: B2 VH with Q1E, V50T, D52S, S54L, S55G, S56Q, N57E, T58K, Y59H
VL: B2 VL
B4: anti-NOV1401 Fab IDT1A, E. coli format (Fab, V domains shown)
VH: B2 VH with Q1E
VL: B2 VL with F91Y, D92Y, T94L, F96Y
B5: anti-NOV1401 Fab IDT1C, mammalian format (HC1 + LC1) (Fab, V domains shown)
VH: B2 VH with V50T, D52A, S54V, S55G, S56A, N57P, Y59H
VL: B2 VL
B6: anti-NOV1401 Fab IDT1D (HC1 + LC2) (Fab, V domains shown)
VH: B2 VH with V50T, D52A, S54V, S55G, S56A, N57P, Y59H
VL: B2 VL with F91Y, D92Y, T94L, F96Y
notes: Cross-clone: heavy chain of IDT1C with light chain of IDT1A; expressed in 293 HEK cells; also called 1DT1D
B7: anti-NOV1401 Fab IDT1E (HC2 + LC2) (Fab, V domains shown)
VH: B2 VH with V50T, D52S, S54L, S55G, S56Q, N57E, T58K, Y59H
VL: B2 VL with F91Y, D92Y, T94L, F96Y
notes: Cross-clone: heavy chain of IDT1B with light chain of IDT1A; expressed in 293 HEK cells

For assay [1], the target named is B5. Description: SET: NOV1401 titrated against a constant Fab concentration in solution, free Fab captured on a biotin-NOV1401 streptavidin plate and detected with anti-human kappa-HRP. On the procedure:
(§1) 14 serial 2-fold dilutions of NOV1401 (from 0.1 pM to 1 nM) were prepared in assay buffer (DPBS (Life Technologies) containing 0.5% BSA and 0.02% Tween-20), and a constant concentration of anti-NOV1401 Fab was added (10 pM, 20 pM or 40 pM). A volume of 60 μl/well of each NOV1401-anti-NOV1401 mix was dispensed in triplicates to a 384-well polypropylene microtiter plate (polypropylene MTP: Greiner, Cat. #781280). Assay buffer served as a negative control and a sample containing only anti-NOV1401 served as a positive control (Bmax). The plate was sealed and incubated overnight (o/n, at least 20 h) at room temperature (RT) on a shaker. A 384-well streptavidin (SA) plate from Life Technologies (Cat. #15505) was coated with 30 μl/well of Biotin-NOV1401 diluted in assay buffer for 2 h at RT on a shaker, then washed three times with wash buffer (PBS containing 0.05% Tween 20). After that 30 μl/well of the equilibrated NOV1401-anti-NOV1401 mix was transferred from the polypropylene MTP (Greiner) to the coated SA plate and incubated for 30 min at RT on a shaker. After an additional wash step, 30 μl/well anti-human Kappa LC-HRP detection antibody (BETHYL, Cat. #A80-115P; 0.05 μg/ml diluted in assay buffer) was added to each well and incubated for 60 min at RT on a shaker. The SA plate was washed, and 30 μl/well LumiGLO read buffer (KPL, Cat. #54-61-01; LumiGLO Peroxidase Chemiluminescent Substrate) was added and incubated for 1 min at RT. RLU signal was measured by the SPECTRAMAXM5 (Molecular Devices, Sunnyvale, Calif. USA).
(§2) KD and Bₘₐₓ were set as variables to be fitted by GraphPad Prism 7.03.

In assay [2] the target is B6. The description is as above. On the procedure:
as §1, §2

Assay [3] concerns the target B7. Described as above. Here is the method: as §1, §2
The target in assay [4] is B1. Description: SPR (ProteOn XPR36), NOV1401 amine-coupled, Fab as analyte, 25 C, Langmuir 1:1. On the procedure: SPR binding experiments were performed on a ProteOn XPR36 instrument (Bio-Rad Laboratories, Inc.) in PBS/T buffer (50 mM phosphate, 150 mM NaCl, pH 7.4, 0.05% v/v Tween-20) at 25° C. NOV1401 (‘Ligand’) was immobilized onto an activated ProteOn GLC sensor chip (Bio-Rad Laboratories, Inc.) using standard amine coupling procedures as described by the manufacturer. Briefly, NOV1401 was injected at a concentration of […] in 20 mM sodium acetate, pH 5.0 and at a flow rate of 30 μl/min for 10 min. Unreacted groups were blocked by injecting 1 M ethanolamine.
For kinetic studies anti-NOV1401 Fabs (‘Analytes’) were diluted in PBS/T buffer to generate a dilution series with concentrations ranging from 0.125-4 nM. Fabs were injected onto surfaces with immobilized NOV1401 at a flow rate of 100 μL/min and sensorgrams were recorded for association and dissociation times of 220 s and 1800 s, respectively. Blank surfaces were used for background corrections. There was no need to regenerate surfaces since the ProteOn protein interaction array system allows to run up to six binding experiments on an identical surface in parallel.
Data processing and analysis including kₒₙ, koff, and KD determination were performed with the ProteOn Managerrm software version 3.1.0.6. Sensorgrams were fitted by applying a Langmuir 1:1 binding model (Rmax set at global) and dissociation constants were calculated from kₒₙ and koff.

The target in assay [5] is B1. Description: solution equilibrium titration (SET), constant Fab with titrated NOV1401, RT, 1:1 fit, average. Here is the method:
as §1
(§3) All measurements were performed as triplicates and average RLU signals were calculated. Data were baseline-adjusted by subtracting the value for the lowest concentration from all data points and plotted against the corresponding NOV1401 concentration. The KD was determined by non-linear curve fitting using a 1:1 fit model as shown in Equation (according to Haenel et al., 2005, Anal Biochem. 339(1):182-4):
as §2

Assay [6] concerns the target B1. Description: Octet bio-layer interferometry, NOV1401 captured on anti-human IgG Fc (AHC) sensors, Fab at 25-400 nM in solution. On the procedure: Affinity assessments were performed via Bio-Layer Interferometry technology. Anti-Human IgG Fc Capture (AHC) biosensors (Fortebio, Ref. 18-5060) were used to capture NOV1401. […] Buffer (Fortebio, Ref. 18-5032) alone was used for background (0 nM) determination. Fab association and dissociation were each recorded by measuring the change in layer thickness (in nanometers, nm) with time for 800 s each, all under computer control.
For orientation: In BLI a coated tip is dipped into the sample, and binding shifts an interference pattern.

For assay [7], the target named is B1. Description: solution equilibrium titration (SET), 1:1 fit, average KD printed in the panel. Here is the method: as §1, with “A” for “14 serial 2-fold dilutions of NOV1401 (from 0.1 pM to 1 nM) were prepared in assay buffer (DPBS (Life Technologies) containing 0.5% BSA and 0.02% Tween-20), and a constant concentration of anti-NOV1401 Fab was added (10 pM, 20 pM or 40 pM). A”
as §3, §2

Assay [8] has as its target B1. Description: cell-based or functional assay.

As to B1, the “IC50 (read off the curve)” value in assay [1] was 10 to 20 pM; in assay [2], around 20 pM; in assay [3], around 10 pM.

In assay [4], B2 yielded a dissociation constant (Kd) of 440 pM, a koff of 0.00024 s⁻¹ and a kon of 550000 M⁻¹ s⁻¹. Besides, the Kd in assay [5] was found to be 110 pM.

Turning to B3, in assay [6], the binding result is reported as “binds”.

As to B4, the binding result in assay [6] was “binds”.

Turning to B5, in assay [7], the Kd was determined as 9.6 pM. This molecule also returned an on-rate (kon) in assay [4] of 250000 M⁻¹ s⁻¹. Moreover, in assay [8], the “aPTT reversal, NOV1401/anti-NOV1401 ratio (n/n) 1/3” value worked out at 79%; the “aPTT reversal, NOV1401/anti-NOV1401 ratio (n/n) 1/9” value stood at 80%; the “aPTT reversal, NOV1401/anti-NOV1401 ratio (n/n) 1/30” value stood at 78%. In assay [5], this molecule yielded a Kd of 9.6 pM.

On to B6, for which, in assay [7], the dissociation constant (Kd) came to 2.5 pM. In assay [4], this molecule yielded an association rate constant (kon) of 440000 M⁻¹ s⁻¹. In assay [8], the “aPTT reversal, NOV1401/anti-NOV1401 ratio (n/n) 1/3” value was found to be 63%; the “aPTT reversal, NOV1401/anti-NOV1401 ratio (n/n) 1/9” value worked out at 72%; the “aPTT reversal, NOV1401/anti-NOV1401 ratio (n/n) 1/30” value was 78%.

For the molecule B7, the Kd in assay [7] came out at 7 pM. Further, in assay [4], the on-rate constant (kon) was determined as 690000 M⁻¹ s⁻¹. Further, in assay [8], the “aPTT reversal, NOV1401/anti-NOV1401 ratio (n/n) 1/3” value worked out at 72%; the “aPTT reversal, NOV1401/anti-NOV1401 ratio (n/n) 1/9” value turned out to be 84%; the “aPTT reversal, NOV1401/anti-NOV1401 ratio (n/n) 1/30” value was determined as 83%. Moreover, the affinity in assay [5], expressed as Kd, was 2.5 pM.

The term Kd denotes the equilibrium constant for the complex coming apart. Low values mean tighter binding, high ones weaker binding. Broadly, the koff is the first-order rate constant of dissociation. Read a low koff as slow dissociation. The kon is the second-order rate constant of association. A lower kon goes with slow association.
